Assay results published in patent publication US20240301429A1 (RSEM LIMITED PARTNERSHIP, published 2024).
Substitutions are numbered along the chain they refer to. Names may count otherwise.

T1: SEMA3A-FC (R&D systems) (Homo sapiens (Human), UniProt Q14563 22-771)
T1 construct: Bought reagent; not shown: Fc portion of the bought fusion, detected with anti-human IgG
T1 sequence: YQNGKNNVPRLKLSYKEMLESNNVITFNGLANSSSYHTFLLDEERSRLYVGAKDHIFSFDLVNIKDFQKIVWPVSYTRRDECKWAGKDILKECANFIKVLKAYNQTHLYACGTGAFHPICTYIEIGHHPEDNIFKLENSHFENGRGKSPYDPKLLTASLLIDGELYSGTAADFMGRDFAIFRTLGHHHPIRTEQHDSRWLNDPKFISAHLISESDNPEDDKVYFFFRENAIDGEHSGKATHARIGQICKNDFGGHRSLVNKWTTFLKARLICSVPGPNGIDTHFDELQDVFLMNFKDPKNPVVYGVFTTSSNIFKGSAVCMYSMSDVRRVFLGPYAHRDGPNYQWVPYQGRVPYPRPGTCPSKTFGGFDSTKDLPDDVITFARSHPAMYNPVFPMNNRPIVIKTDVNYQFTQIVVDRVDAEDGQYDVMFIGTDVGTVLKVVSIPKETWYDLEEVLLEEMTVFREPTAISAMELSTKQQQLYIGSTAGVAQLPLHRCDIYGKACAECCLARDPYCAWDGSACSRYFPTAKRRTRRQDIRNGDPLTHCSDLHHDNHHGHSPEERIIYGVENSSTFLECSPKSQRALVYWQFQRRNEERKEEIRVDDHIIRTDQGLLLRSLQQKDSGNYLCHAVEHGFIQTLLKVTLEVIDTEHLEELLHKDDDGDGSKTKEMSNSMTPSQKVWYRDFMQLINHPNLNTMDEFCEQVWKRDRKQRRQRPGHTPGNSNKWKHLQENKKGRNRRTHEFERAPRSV

B1: NRP1 trap AK (receptor)
chain: FRNDKRGPECSQNYTTPSGVIKSPGFPEKYPNSLECTYIVFAPKMSEIILEFESFDLEPDSNPPGGMFCRYDRLEIWDGFPDVGPHIGRYCGQKTPGRIRSSSGILSMVFYTDSAIAKEGFSANYSVLQSSVSEDFKCMEALGMESGEIHSDQITASSQYSTNWSAERSRLNYPENGWTPGEDSYREWIQVDLGLLRFVTAVGTQGAISKETKKKYYVKTYKIDVSSNGEDWITIKEGNKPVLFQGNTNPTDVVVAVFPKPLITRFVRIKPATWETGISMRFEVYGCKITDYPCSGMLGMVSGLISDSQITSSNQGDRNWMPENIRLVTSRSGWALPPAPHSYINEWLQIDLGEEKIVRGIIIQGGKHRENKVFMRKFKIGYSNNGSDWKMIMDDSKRKAKSFEGNNNYDTPELRTFPALSTRFIRIYPERATHGGLGLRMELLGCRSGSKENLYFQG
notes: a2b1b2; Signal peptide not trimmed
B2: NRP1 trap M (receptor)
chain: FRNDKCGDTIKIESPGYLTSPGYPHSYHPSEKCEWLIQAPDPYQRIMINFNPHFDLEDRDCKYDYVEVFDGENENGHFRGKFCGKIAPPPVVSSGPFLFIKFVSDYETHGAGFSIRYELFKRGPECSQNYTTPSGVIKSPGFPEKYPNSLECTYIVFAPKMSEIILEFESFDLEPDSNPPGGMFCRYDRLEIWDGFPDVGPHIGRYCGQKTPGRIRSSSGILSMVFYTDSAIAKEGFSANYSVLQSSVSEDFKCMEALGMESGEIHSDQITASSQYSTNWSAERSRLNYPENGWTPGEDSYREWIQVDLGLLRFVTAVGTQGAISKETKKKYYVKTYKIDVSSNGEDWITIKEGNKPVLFQGNTNPTDVVVAVFPKPLITRFVRIKPATWETGISMRFEVYGCRSGSKENLYFQG
notes: a1a2-b1; Signal peptide not trimmed
B3: NRP1 trap P (receptor)
chain: B2 chain with Y276A
notes: a1a2-b1 with Y297A (held in the entry); Signal peptide not trimmed
B4: NRP1 trap AD (receptor)
chain: B2 chain with D299K
notes: Signal peptide not trimmed
B5: NRP1 trap Z (receptor)
chain: FRNDKCGDTIKIESPGYLTSPGYPHSYHPSEKCEWLIQAPDPYQRIMINFNPHFDLEDRDCKYDYVEVFDGENENGHFRGKFCGKIAPPPVVSSGPFLFIKFVSDYETHGAGFSIRYELFKRGPECSQNYTTPSGVIKSPGFPEKYPNSLECTYIVFAPKMSEIILEFESFDLEPDSNPPGGMFCRYDRLEIWDGFPDVGPHIGRYCGQKTPGRIRSSSGILSMVFYTDSAIAKEGFSANYSVLQSSVSEDFKCMEALGMESGEIHSDQITASSQYSTNWSAERSRLNYPENGWTPGKKSYREWIQVDLGLLRFVTAVGTQGAISKETKKKYYVKTYKIDVSSNGEDWITIKEGNKPVLFQGNTNPTDVVVAVFPKPLITRFVRIKPATWETGISMRFEVYGCKITDYPCSGMLGMVSGLISDSQITSSNQGDRNWMPENIRLVTSRSGWALPPAPHSYINEWLQIDLGEEKIVRGIIIQGGKHRENKVFMRKFKIGYSNNGSDWKMIMDDSKRKAKSFEGNNNYDTPELRTFPALSTRFIRIYPERATHGGLGLRMELLGCEVEAPTAGPTTPNGNLVDECDDDQANCHSGTGDDFQLTGGTTVLATEKPTVIDSTIQSEFPTYGFNCEFGWGSHKTFCHWEHDNHVQLKWSVLTSKTGPIQDHTGDGNFIYSQADENQKGKVARLVSPVVYSQNSAHCMTFWYHMSGSHVGTLRVKLRYQKPEEYDQLVWMAIGHQGDHWKEGRVLLHKSLKLYQVIFEGEIGKGNLGGIAVDDISINNHISQEDCAKPADLDKKNPEIKIDETGSTPGYEGEGEGDKNISRKPGNVLKTLDPRSGSKENLYFQG
notes: a1a2-b1b2-c with E319K, D320K (held in the entry); Signal peptide not trimmed
B6: NRP1 trap X (receptor)
chain: FRNDKCGDTIKIESPGYLTSPGYPHSYHPSEKCEWLIQAPDPYQRIMINFNPHFDLEDRDCKYDYVEVFDGENENGHFRGKFCGKIAPPPVVSSGPFLFIKFVSDYETHGAGFSIRYELFKRGPECSQNYTTPSGVIKSPGFPEKYPNSLECTYIVFAPKMSEIILEFESFDLEPDSNPPGGMFCRYDRLEIWDGFPDVGPHIGRYCGQKTPGRIRSSSGILSMVFYTDSAIAKEGFSANYSVLQSSVSEDFKCMEALGMESGEIHSDQITASSQASTNWSAERSRLNYPENGWTPGEDSYREWIQVDLGLLRFVTAVGTQGAISKETKKKYYVKTYKIDVSSNGEDWITIKEGNKPVLFQGNTNPTDVVVAVFPKPLITRFVRIKPATWETGISMRFEVYGCKITDYPEVEAPTAGPTTPNGNLVDECDDDQANCHSGTGDDFQLTGGTTVLATEKPTVIDSTIQSEFPTYGFNCEFGWGSHKTFCHWEHDNHVQLKWSVLTSKTGPIQDHTGDGNFIYSQADENQKGKVARLVSPVVYSQNSAHCMTFWYHMSGSHVGTLRVKLRYQKPEEYDQLVWMAIGHQGDHWKEGRVLLHKSLKLYQVIFEGEIGKGNLGGIAVDDISINNHISQEDCAKPADLDKKNPEIKIDETGSTPGYEGEGEGDKNISRKPGNVLKTLDPRSGSKENLYFQG
notes: a1a2-b1-c with Y297A (held in the entry); Signal peptide not trimmed
B7: NRP1 trap AF (receptor)
chain: FRNDKCGDTIKIESPGYLTSPGYPHSYHPSEKCEWLIQAPDPYQRIMINFNPHFDLEDRDCKYDYVEVFDGENENGHFRGKFCGKIAPPPVVSSGPFLFIKFVSDYETHGAGFSIRYELFKRGPECSQNYTTPSGVIKSPGFPEKYPNSLECTYIVFAPKMSEIILEFESFDLEPDSNPPGGMFCRYDRLEIWDGFPDVGPHIGRYCGQKTPGRIRSSSGILSMVFYTDSAIAKEGFSANYSVLQSSVSEDFKKITDYPCSGMLGMVSGLISDSQITSSNQGDRNWMPENIRLVTSRSGWALPPAPHSYINEWLQIDLGEEKIVRGIIIQGGKHRENKVFMRKFKIGYSNNGSDWKMIMDDSKRKAKSFEGNNNYDTPELRTFPALSTRFIRIYPERATHGGLGLRMELLGCEVEAPTAGPTTPNGNLVDECDDDQANCHSGTGDDFQLTGGTTVLATEKPTVIDSTIQSEFPTYGFNCEFGWGSHKTFCHWEHDNHVQLKWSVLTSKTGPIQDHTGDGNFIYSQADENQKGKVARLVSPVVYSQNSAHCMTFWYHMSGSHVGTLRVKLRYQKPEEYDQLVWMAIGHQGDHWKEGRVLLHKSLKLYQVIFEGEIGKGNLGGIAVDDISINNHISQEDCAKPADLDKKNPEIKIDETGSTPGYEGEGEGDKNISRKPGNVLKTLDPRSGSKENLYFQG
notes: a1a2b2c, deleted aa 281-430 and 857-923; The mature column prints 'About 22-429 and 431-856', against 1-280 and 431-856 in the column with signal peptide; Signal peptide not trimmed
B8: NRP1 trap AE (receptor)
chain: FRNDKCGDTIKIESPGYLTSPGYPHSYHPSEKCEWLIQAPDPYQRIMINFNPHFDLEDRDCKYDYVEVFDGENENGHFRGKFCGKIAPPPVVSSGPFLFIKFVSDYETHGAGFSIRYELFKRGPECSQNYTTPSGVIKSPGFPEKYPNSLECTYIVFAPKMSEIILEFESFDLEPDSNPPGGMFCRYDRLEIWDGFPDVGPHIGRYCGQKTPGRIRSSSGILSMVFYTDSAIAKEGFSANYSVLQSSVSEDFKCMEALGMESGEIHSDQITASSQYSTNWSAERSRLNYPENGWTPGEKSYREWIQVDLGLLRFVTAVGTQGAISKETKKKYYVKTYKIDVSSNGEDWITIKEGNKPVLFQGNTNPTDVVVAVFPKPLITRFVRIKPATWETGISMRFEVYGCKITDYPCSGMLGMVSGLISDSQITSSNQGDRNWMPENIRLVTSRSGWALPPAPHSYINEWLQIDLGEEKIVRGIIIQGGKHRENKVFMRKFKIGYSNNGSDWKMIMDDSKRKAKSFEGNNNYDTPELRTFPALSTRFIRIYPERATHGGLGLRMELLGCRSGSKENLYFQG
notes: Signal peptide not trimmed
B9: NRP1 trap Q (receptor)
chain: B8 chain with Y276A, K299D
notes: a1a2-b1b2 with Y297A (held in the entry); Signal peptide not trimmed
B10: NRP1 trap AJ (receptor)
chain: FRNDKRGPECSQNYTTPSGVIKSPGFPEKYPNSLECTYIVFAPKMSEIILEFESFDLEPDSNPPGGMFCRYDRLEIWDGFPDVGPHIGRYCGQKTPGRIRSSSGILSMVFYTDSAIAKEGFSANYSVLQSSVSEDFKCMEALGMESGEIHSDQITASSQYSTNWSAERSRLNYPENGWTPGEDSYREWIQVDLGLLRFVTAVGTQGAISKETKKKYYVKTYKIDVSSNGEDWITIKEGNKPVLFQGNTNPTDVVVAVFPKPLITRFVRIKPATWETGISMRFEVYGCKITDYPCSGMLGMVSGLISDSQITSSNQGDRNWMPENIRLVTSRSGWALPPAPHSYINEWLQIDLGEEKIVRGIIIQGGKHRENKVFMRKFKIGYSNNGSDWKMIMDDSKRKAKSFEGNNNYDTPELRTFPALSTRFIRIYPERATHGGLGLRMELLGCEVEAPTAGPTTPNGNLVDECDDDQANCHSGTGDDFQLTGGTTVLATEKPTVIDSTIQSEFPTYGFNCEFGWGSHKTFCHWEHDNHVQLKWSVLTSKTGPIQDHTGDGNFIYSQADENQKGKVARLVSPVVYSQNSAHCMTFWYHMSGSHVGTLRVKLRYQKPEEYDQLVWMAIGHQGDHWKEGRVLLHKSLKLYQVIFEGEIGKGNLGGIAVDDISINNHISQEDCAKPADLDKKNPEIKIDETGSTPGYEGEGEGDKNISRKPGNVLKTLDPRSGSKENLYFQG
notes: a2b1b2c; Signal peptide not trimmed

target: T1, SEMA3A-FC (R&D systems); assay: saturation binding, trap coated on plate, SEMA3A-FC titrated, anti-human IgG-HRP chemiluminescence
Procedure: Sema 3A and AP-VEGF₁₆₅ binding assays. Saturation curves for the determinations of KD of binding to SEMA 3A or VEGF165 were obtained as follow. Wells of high protein binding 96 well plates (Maxisorp, Nunc) were coated with purified traps diluted in PBS and blocked afterward with binding buffer (PBS containing 2% casein and 0.05% Tween 20). The SEMA3A-FC (R&D systems) or AP-VEGF165 ligands were diluted in binding buffer over an extensive range of concentrations and added to wells. Following an overnight incubation, wells were washed with PBS containing 0.05% tween. Bound SEMA3a-FC was detected using an HRP-linked anti-Human IgG (Biorad) and ECL substrate (Pierce). Alternatively, bound AP-VEGF165 was detected using CPD star substrate (Roche). The Chemiluminescent signal was acquired on a TECAN reader. Dissociation constant (KD) were determined by non-linear curve fitting using the Graph Pad prism software.

Kd | binding result | Binder
4.4 nM |  | B1
0.95 nM |  | B2
 | no binding | B3
 | no binding | B4
4.44 nM |  | B5
 | no binding | B6
 | no binding | B7
 | no binding | B8
 | no binding | B9
2.4 nM |  | B10
